The subject of data set [1] is MS2 coat protein. Briefly: apparent KD of MS2 coat protein; designed switch direction (-1 OFF switch, 1 ON switch): 1; higher = weaker reporter binding. The following applies: Eterna round: R98. The method, then: (§1)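 RNA-MaP: designed FMN/MS2 RNA switches (84 nt design region) are transcribed on-chip within common flanks and titrated with SNAP-549-labelled MS2 coat protein (about 1-3000 nM) in 100 mM Tris pH 7.5, 80 mM KCl, 4 mM MgCl2, without or with 200 uM FMN. Median apparent KD per design; activation ratio = KD,OFF / KD,ON.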

Data set [2] relates to MS2 coat protein. Briefly: apparent KD of MS2 coat protein; designed switch direction (-1 OFF switch, 1 ON switch): -1; higher = weaker reporter binding. To be noted: Eterna round: R98. The method, then: as §1

As for “AAAUAAAAUAUAGGAUAUGGAAACAUGAGGAUCACCCAUGUAAGAUAAGAUAAAUAAUGAUAUAGCCAGAAGGAUAAAAUAUAA [LRO005_SS NG 2]”, the “apparent KD of MS2 coat protein” value is 32.7 nM in the data set with MS2 coat protein [1] (input ligand: FMN 200 uM) and 28.3 nM in the data set on MS2 coat protein [1] (input ligand: none).

Regarding “AAUAAUCAGGUAGGAUAUGCUCAGGAAUACUGAGCAGAAGGACUAGAAACCUGAGGAUCACCCAGGUAACUGGAAUAAUAAUAA [Same State NG1 - A3C, U17G Submission 6A]”, the “apparent KD of MS2 coat protein” value in the data set on MS2 coat protein [1] (input ligand: FMN 200 uM) was determined as 53.6 nM; in the data set with MS2 coat protein [1] (input ligand: none), 78.3 nM.

In the case of “AGUUGCAAACAGAACAUGAGGAUCACCCAUGUGCUCUCGUGUAAGGAUAUACAUUCGUAUGGAAAGUAGAAGGUACUAAUUAUG [JR_SSNG3_Sub93]”, the “apparent KD of MS2 coat protein” value in the data set on MS2 coat protein [1] (input ligand: FMN 200 uM) was determined as 66.3 nM; in the data set on MS2 coat protein [1] (input ligand: none), 65.1 nM.

With “AUAUAAAAUAUAGGAUAUGGAAACAUGAGGAUCACCCAUGUAUGAUAAGAUAAAUAAUGAUAUAGCCAGAAGGAUACAAUAUAA [LRO008_SS NG 2]”, the “apparent KD of MS2 coat protein” value with MS2 coat protein [1] (input ligand: FMN 200 uM) stood at 47.5 nM; in the data set with MS2 coat protein [1] (input ligand: none), 38.2 nM.

As for “AUCUAUCGGUCAGGAUAUUCACAUGAGGAUCACCCAUGUGAGCCUCGGCCAAAGUGAACGCAUGUGAAGAAGGGACGGCAAAAC [Atceen]”, the “apparent KD of MS2 coat protein” value in the data set with MS2 coat protein [2] (input ligand: FMN 200 uM) came to 33.4 nM; in the data set with MS2 coat protein [2] (input ligand: none) it was 27.8 nM.

On to “AUGAAGAGGCAAGGAUAUCGAGUGCUGGGCCUAUACAUGAGGAUCACCCAUGUCCUGGCAGGACGUGAGAAGGUGUAUCGAAUA [Ussotemaa]”, for which the “apparent KD of MS2 coat protein” value in the data set on MS2 coat protein [1] (input ligand: FMN 200 uM) was determined as 455 nM; in the data set with MS2 coat protein [1] (input ligand: none), 244 nM.

As for “CAUAUAUGGUGAGGAUAUGCAGAGGAUCACCCUGUAGAAGGCAUCAGGGUAGAAGGUGCAAGGAUCACCUGUAAGGAUAUAUCC [pwkr2 ssNG1 DX.28]”, the “apparent KD of MS2 coat protein” value in the data set on MS2 coat protein [1] (input ligand: FMN 200 uM) worked out at 979 nM; in the data set with MS2 coat protein [1] (input ligand: none), 864 nM.

On to “CAUGUAUGGUGAGGAUAUGCAAAGGAUCACCUUGUAGAAGGCAUCAGGUAGAAGGUGCAGAGGAUCACCCUGUAAGGAUAUAUC [pwkr2 ssNG1 DX.23]”, for which the “apparent KD of MS2 coat protein” value in the data set on MS2 coat protein [1] (input ligand: FMN 200 uM) was 72 nM; with MS2 coat protein [1] (input ligand: none), 249 nM.

As for “CCAGAUAUAUGAGGAUAUCGAGUGGAAUACACUCGAGAAGGUAUGUGAAAACAUGAGGAUCACCCAUGUGAUUAAUAAUCUGGA [SameState NG1 #1]”, the “apparent KD of MS2 coat protein” value with MS2 coat protein [1] (input ligand: FMN 200 uM) was determined as 22.4 nM; in the data set with MS2 coat protein [1] (input ligand: none), 16.8 nM.

With “CCGUUGCAAAUAAAACAUGAGGAUCACCCAUGUGAGUCUCAUGAGGAUAUGCAGGUCAAAGACUUGCAGAAGGCAUGGCGACGG [Mat - Same State NG 3 - JL Mod - D67]”, the “apparent KD of MS2 coat protein” value came out at 118 nM with MS2 coat protein [1] (input ligand: FMN 200 uM) and 1520 nM with MS2 coat protein [1] (input ligand: none).

For “CGAACCACUUAGGUACCACACAUGAGGAUCACCCAUGUAUCACAGGAUAUGCAUGAUAUAUUCAGGCAGAAGGGUGAUCUUACC [Esananti]”, the “apparent KD of MS2 coat protein” value came out at 265 nM in the data set on MS2 coat protein [1] (input ligand: FMN 200 uM) and 24.7 nM in the data set on MS2 coat protein [1] (input ligand: none).

As to “CUGUGGGCCAUAGGAUAUGCGCAGAAUUAGCAAGCAGAAGGGUGGAUCGGACAAUAAUAACUACAUGAGGAUCACCCAUGUGCU [Lelegeza]”, the “apparent KD of MS2 coat protein” value in the data set on MS2 coat protein [1] (input ligand: FMN 200 uM) amounted to 55.5 nM; in the data set on MS2 coat protein [1] (input ligand: none), 139 nM.

Take “GAAUAAUAGAUCCAAUUUAUCUACAUGAGGAUCACCCAUGUGCAGGAUAUGCUAAAAUUUAAUAAGCAGAAGGGCAAGAACGGC [JR_ExcNG3_Sub016]”: the results for the “apparent KD of MS2 coat protein” value with MS2 coat protein [2] (input ligand: FMN 200 uM) and in the data set on MS2 coat protein [2] (input ligand: none) were 374 nM and 104 nM, respectively.

With “GACGAAUUCUUAGGAUAUCGAGUGGAUAACACUCGAGAAGGAAGAUAUACCUGAGGAUCACCCAGGUUAAACUGGACGUCAAUA [Same State NG1 - A3C, U17G Submission 8C]”, the “apparent KD of MS2 coat protein” value amounted to 53.6 nM in the data set with MS2 coat protein [1] (input ligand: FMN 200 uM) and 205 nM in the data set on MS2 coat protein [1] (input ligand: none).

Regarding “GACGGAUUCUUAGGAUAUGCUCAGGAUAACUGAGCAGAAGGAAGAAUAACCUGAGGAUCACCCAGGUAAUACUGAACGUCAAUA [Same State NG1 - A3C, U17G Submission 9B]”, the “apparent KD of MS2 coat protein” value was found to be 20.7 nM in the data set with MS2 coat protein [1] (input ligand: FMN 200 uM) and 64.1 nM with MS2 coat protein [1] (input ligand: none).

As for “GAGCAGGUAAAUAAACUCAAUUACAUGAGGAUCACCCAUGUAUAGGAUAUCGUCAGGAAUACUGACGAGAAGGAUACAUCCUGC [Exclusion NG 3/14-A2]”, the figures for the “apparent KD of MS2 coat protein” value in the data set on MS2 coat protein [2] (input ligand: FMN 200 uM) and with MS2 coat protein [2] (input ligand: none) were 59.2 nM and 19.7 nM, respectively.

For the sequence “GCAGAAGGUGCGGAGGAUCACCCUGUAAGGAUAUGCAUUAGCAAGGAUAUACAGAGGAUCACCCUGUAGAAGGUGCACUUCAAA [pwkr2 ssNG3 DX.6]”, the figures for the “apparent KD of MS2 coat protein” value with MS2 coat protein [1] (input ligand: FMN 200 uM) and in the data set on MS2 coat protein [1] (input ligand: none) were 779 nM and 3160 nM, respectively.

Take “GCGCGCGCGCGCGCGCGCGCGCACAUGAGGAUCACCCAUGUAUAGGAUAUCGAUUGUUGUUGAUUCGAGAAGGGUAGCGCGCGC [Exclusion NG3]”: the entries for the “apparent KD of MS2 coat protein” value with MS2 coat protein [2] (input ligand: FMN 200 uM) and in the data set with MS2 coat protein [2] (input ligand: none) were 44.1 nM and 39.4 nM, respectively.

With “GGAGACCUCACAGGAUAUGCUGGACUUUGUCCAGCAGAAGGGUGAACAUGAGGAUCACCCAUGUAGGUCUCCAAAAUAUUUAAU [Denovo 50]”, the “apparent KD of MS2 coat protein” value with MS2 coat protein [1] (input ligand: FMN 200 uM) turned out to be 989 nM; in the data set with MS2 coat protein [1] (input ligand: none) it was 100 nM.

With “UAACAGCGAAGAUAAUAAUGAAUACAUGAGGAUCACCCAUGUAAGGAUAUCGUCAGGAAUACUGACGAGAAGGUACAUACGCUG [Exclusion NG 3/17-B2]”, the entries for the “apparent KD of MS2 coat protein” value in the data set with MS2 coat protein [2] (input ligand: FMN 200 uM) and with MS2 coat protein [2] (input ligand: none) were 23.2 nM and 16.7 nM, respectively.

As for “UCACUCACGUUAGGAUAUGGAUCGGAAAACGAUCCAGAAGGAACCUGCAAACAAGAGGAUCACCCUUGUUCCAAUAACGAGUGA [SameSame 6 - Jieux - Same State NG 1]”, the figures for the “apparent KD of MS2 coat protein” value in the data set with MS2 coat protein [1] (input ligand: FMN 200 uM) and in the data set with MS2 coat protein [1] (input ligand: none) were 40.9 nM and 51.2 nM, respectively.
